In article PMC4285326, “Structure and interactions of the Bacillus subtilis sporulation inhibitor of DNA replication, SirA, with domain I of DnaA” (Molecular Microbiology, 2014):
Changes are numbered by the printed parent chain. Numbers in names are those of the source.

T1: DnaA domain I (DnaA^DI), Bacillus subtilis, His-tag removed (Bacillus subtilis (strain 168), UniProt P05648)
T1 chain: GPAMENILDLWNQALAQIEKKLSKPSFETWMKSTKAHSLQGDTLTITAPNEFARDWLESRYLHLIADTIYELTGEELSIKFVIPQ

B1: SirA (sporulation inhibitor of DNA replication), Bacillus subtilis (natural protein, B. subtilis, UniProt P45707 1-148, looked up)
chain: MERHYYTYLIKEEFANHYFGRESVMFELFQDYHWTSLEKQQYEMTEKQIQYITQPIPILHMHQRLKMNLNKTDYRQLDYIYRIALPKAKGHATFMMKEHMIEIVASGDYEAETIFFEVLRKVSPCFLAMDFNSKRYGWLNPVKERNFV
modifications: 2-mercaptoethanol linked through a disulphide bond to Cys125 (seen in the crystal and by mass spectrometry)
notes: SirA, B. subtilis, amplified from genomic DNA, untagged; model has residues 2-141, Met1 and residues 142-148 disordered; Soluble only when coexpressed with DnaA^DI; A selenomethionine-substituted form was also crystallised for phasing; also called wild type SirA; native SirA; source: E. coli BL21 (DE3), coexpressed with His-DnaA^DI from pET-YSBLIC3C-DnaA^DISirA
B2: SirA Y18A, Bacillus subtilis (natural protein, B. subtilis, UniProt P45707 1-148, looked up)
chain: B1 chain with Y18A
notes: SirA, B. subtilis, untagged, with Tyr18Ala; also called Tyr18Ala; source: E. coli BL21, coexpressed with His-DnaA^DI, in soluble lysate
B3: SirA Q48A, Bacillus subtilis (natural protein, B. subtilis, UniProt P45707 1-148, looked up)
chain: B1 chain with Q48A
notes: SirA, B. subtilis, untagged, with Gln48Ala; also called Gln48Ala; source: E. coli BL21, coexpressed with His-DnaA^DI, in soluble lysate
B4: SirA F14A, Bacillus subtilis (natural protein, B. subtilis, UniProt P45707 1-148, looked up)
chain: B1 chain with F14A
notes: SirA, B. subtilis, untagged, with Phe14Ala; also called Phe14Ala; source: E. coli BL21, coexpressed with His-DnaA^DI, in soluble lysate
B5: His-tagged DnaA domain I (His-DnaA^DI), Bacillus subtilis (domain or fragment, B. subtilis, UniProt P05648 1-82, looked up)
chain: MENILDLWNQALAQIEKKLSKPSFETWMKSTKAHSLQGDTLTITAPNEFARDWLESRYLHLIADTIYELTGEELSIKFVIPQ
notes: DnaA, B. subtilis, domain I (N-terminal domain); residues 1-81 defined in the crystal, C-terminal Gln82 disordered; 3C protease cleavable N-terminal His-tag, not cleaved in these experiments; also called His-tagged DnaA^DI; wild type DnaA^DI; source: E. coli BL21 (DE3), coexpressed with SirA from pET-YSBLIC3C-DnaA^DISirA; not shown: His6, N-terminal, kept
B6: DnaA domain I (DnaA^DI), Bacillus subtilis, His-tag removed (domain or fragment, B. subtilis)
chain: T1 chain
notes: DnaA, B. subtilis, domain I (N-terminal domain); residues 1-81 defined in the crystal, C-terminal Gln82 disordered; Calculated molecular mass 9.7 kDa; also called N-terminal domain of DnaA; not shown: His6, N-terminal, cleaved

What was measured:
[1] = molecular target: B6; assay: SEC-MALS; Superdex 75 HR 10/30, 50 mM Tris pH 8.5, 200 mM KCl, 0.5 ml min^-1; DnaA^DI at 1.0, 2.5 and 5.0 mg ml^-1; SirA-DnaA^DI at 0.5, 1.0 and 2.5 mg ml^-1; conditions: both partners purified
[2] = molecular target: T1, DnaA domain I (DnaA^DI), Bacillus …; assay: SEC-MALLS (1:1 heterodimer), Ni-NTA co-purification/pull-down, crystal structure; SirA soluble only when co-expressed with DnaA^DI; complex purified as such, not mixed from separate proteins
[3] = molecular target: B5; assay: pull-down; soluble lysate of E. coli coexpressing His-DnaA^DI and untagged SirA loaded onto a HisTrap FF crude Ni-affinity column in 50 mM Tris pH 8.5, 200 mM KCl, 20 mM imidazole, 10 mM BME; washed; eluted with 500 mM imidazole; eluates normalised to DnaA^DI, SDS-PAGE with Coomassie staining, bands quantified with ImageJ; conditions: partners not purified
[4] = molecular target: B1; assay: as above; conditions: partners not purified
[5] = molecular target: B1; assay: crystal structure; native crystals, space group P2_1, two complexes per asymmetric unit; 100 mM HEPES pH 7.5, 200 mM NH4 acetate, 25% PEG 3350, 1% DMF; SAD phasing from SeMet crystals, then molecular replacement; conditions: both partners purified

Binder: B1
stoichiometry N [1]: 1
binding result [2]: binds

Binder: B2
fold lower recovery relative to wild type SirA [3]: 2.5 fold

Binder: B3
fold lower recovery relative to wild type SirA [3]: 1.5 fold

Binder: B4
fold lower recovery relative to wild type SirA [3]: 1.5 fold

Binder: B5
binding result [4]: binds

Binder: B6
binding result [5]: binds
